Data from patent US20060275290A1.

Target: p75 neurotrophin receptor (p75^NTR) on rat embryonic (E15) spinal cord motor neurons (rat) (UniProt P07174)
Experiment: cell-based or functional assay

p75 neurotrophin receptor (p75^NTR) on rat embryonic (E15) spinal cord motor neurons (rat), sequence (P07174 30-425): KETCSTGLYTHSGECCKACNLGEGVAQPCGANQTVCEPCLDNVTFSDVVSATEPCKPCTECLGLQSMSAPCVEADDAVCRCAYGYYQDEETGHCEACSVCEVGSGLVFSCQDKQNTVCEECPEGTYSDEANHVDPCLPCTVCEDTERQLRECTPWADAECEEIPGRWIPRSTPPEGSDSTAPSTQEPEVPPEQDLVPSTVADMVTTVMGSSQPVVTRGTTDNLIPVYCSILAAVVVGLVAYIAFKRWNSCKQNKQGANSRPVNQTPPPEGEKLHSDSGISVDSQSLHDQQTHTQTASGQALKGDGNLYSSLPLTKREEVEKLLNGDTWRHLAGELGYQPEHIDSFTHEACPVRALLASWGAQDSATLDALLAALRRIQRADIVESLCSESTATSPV

share of motor neurons vulnerable to NGF in culture: 40%
Substance: mouse NGF (2.5S), purified, from Harlan (from UniProt P01139 122-241) (ligand)
